B1: Protein SSD1 (Saccharomyces cerevisiae), P24276 (parent)
chain: MSKNSNVNNNRSQEPNNMFVQTTGGGKNAPKQIHVAHRRSQSELTNLMIEQFTLQKQLEQVQAQQQQLMAQQQQLAQQTGQYLSGNSGSNNHFTPQPPHPHYNSNGNSPGMSAGGSRSRTHSRNNSGYYHNSYDNNNNSNNPGSNSHRKTSSQSSIYGHSRRHSLGLNEAKKAAAEEQAKRISGGEAGVTVKIDSVQADSGSNSTTEQSDFKFPPPPNAHQGHRRATSNLSPPSFKFPPNSHGDNDDEFIATSSTHRRSKTRNNEYSPGINSNWRNQSQQPQQQLSPFRHRGSNSRDYNSFNTLEPPAIFQQGHKHRASNSSVHSFSSQGNNNGGGRKSLFAPYLPQANIPELIQEGRLVAGILRVNKKNRSDAWVSTDGALDADIYICGSKDRNRALEGDLVAVELLVVDDVWESKKEKEEKKRRKDASMQHDLIPLNSSDDYHNDASVTAATSNNFLSSPSSSDSLSKDDLSVRRKRSSTINNDSDSLSSPTKSGVRRRSSLKQRPTQKKNDDVEVEGQSLLLVEEEEINDKYKPLYAGHVVAVLDRIPGQLFSGTLGLLRPSQQANSDNNKPPQSPKIAWFKPTDKKVPLIAIPTELAPKDFVENADKYSEKLFVASIKRWPITSLHPFGILVSELGDIHDPDTEIDSILRDNNFLSNEYLDQKNPQKEKPSFQPLPLTAESLEYRRNFTDTNEYNIFAISELGWVSEFALHVRNNGNGTLELGCHVVDVTSHIEEGSSVDRRARKRSSAVFMPQKLVNLLPQSFNDELSLAPGKESATLSVVYTLDSSTLRIKSTWVGESTISPSNILSLEQLDEKLSTGSPTSYLSTVQEIARSFYARRINDPEATLLPTLSLLESLDDEKVKVDLNILDRTLGFVVINEIKRKVNSTVAEKIYTKLGDLALLRRQMQPIATKMASFRKKIQNFGYNFDTNTADELIKGVLKIKDDDVRVGIEILLFKTMPRARYFIAGKVDPDQYGHYALNLPIYTHFTAPMRRYADHVVHRQLKAVIHDTPYTEDMEALKITSEYCNFKKDCAYQAQEQAIHLLLCKTINDMGNTTGQLLTMATVLQVYESSFDVFIPEFGIEKRVHGDQLPLIKAEFDGTNRVLELHWQPGVDSATFIPADEKNPKSYRNSIKNKFRSTAAEIANIELDKEAESEPLISDPLSKELSDLHLTVPNLRLPSASDNKQNALEKFISTTETRIENDNYIQEIHELQKIPILLRAEVGMALPCLTVRALNPFMKRV
B2: Serine/threonine-protein kinase CBK1 (Saccharomyces cerevisiae), P53894 (parent)
chain: MYNSSTNHHEGAPTSGHGYYMSQQQDQQHQQQQQYANEMNPYQQIPRPPAAGFSSNYMKEQGSHQSLQEHLQRETGNLGSGFTDVPALNYPATPPPHNNYAASNQMINTPPPSMGGLYRHNNNSQSMVQNGNGSGNAQLPQLSPGQYSIESEYNQNLNGSSSSSPFHQPQTLRSNGSYSSGLRSVKSFQRLQQEQENVQVQQQLSQAQQQNSRQQQQQLQYQQQQQQQQQQQHMQIQQQQQQQQQQQQSQSPVQSGFNNGTISNYMYFERRPDLLTKGTQDKAAAVKLKIENFYQSSVKYAIERNERRVELETELTSHNWSEERKSRQLSSLGKKESQFLRLRRTRLSLEDFHTVKVIGKGAFGEVRLVQKKDTGKIYAMKTLLKSEMYKKDQLAHVKAERDVLAGSDSPWVVSLYYSFQDAQYLYLIMEFLPGGDLMTMLIRWQLFTEDVTRFYMAECILAIETIHKLGFIHRDIKPDNILIDIRGHIKLSDFGLSTGFHKTHDSNYYKKLLQQDEATNGISKPGTYNANTTDTANKRQTMVVDSISLTMSNRQQIQTWRKSRRLMAYSTVGTPDYIAPEIFLYQGYGQECDWWSLGAIMYECLIGWPPFCSETPQETYRKIMNFEQTLQFPDDIHISYEAEDLIRRLLTHADQRLGRHGGADEIKSHPFFRGVDWNTIRQVEAPYIPKLSSITDTRFFPTDELENVPDSPAMAQAAKQREQMTKQGGSAPVKEDLPFIGYTYSRFDYLTRKNAL
partner: B1 chain
B3: Metallothionein expression activator (Saccharomyces cerevisiae), P21192 (parent)
chain: MDNVVDPWYINPSGFAKDTQDEEYVQHHDNVNPTIPPPDNYILNNENDDGLDNLLGMDYYNIDDLLTQELRDLDIPLVPSPKTGDGSSDKKNIDRTWNLGDENNKVSHYSKKSMSSHKRGLSGTAIFGFLGHNKTLSISSLQQSILNMSKDPQPMELINELGNHNTVKNNNDDFDHIRENDGENSYLSQVLLKQQEELRIALEKQKEVNEKLEKQLRDNQIQQEKLRKVLEEQEEVAQKLVSGATNSNSKPGSPVILKTPAMQNGRMKDNAIIVTTNSANGGYQFPPPTLISPRMSNTSINGSPSRKYHRQRYPNKSPESNGLNLFSSNSGYLRDSELLSFSPQNYNLNLDGLTYNDHNNTSDKNNNDKKNSTGDNIFRLFEKTSPGGLSISPRINGNSLRSPFLVGTDKSRDDRYAAGTFTPRTQLSPIHKKRESVVSTVSTISQLQDDTEPIHMRNTQNPTLRNANALASSSVLPPIPGSSNNTPIKNSLPQKHVFQHTPVKAPPKNGSNLAPLLNAPDLTDHQLEIKTPIRNNSHCEVESYPQVPPVTHDIHKSPTLHSTSPLPDEIIPRTTPMKITKKPTTLPPGTIDQYVKELPDKLFECLYPNCNKVFKRRYNIRSHIQTHLQDRPYSCDFPGCTKAFVRNHDLIRHKISHNAKKYICPCGKRFNREDALMVHRSRMICTGGKKLEHSINKKLTSPKKSLLDSPHDTSPVKETIARDKDGSVLMKMEEQLRDDMRKHGLLDPPPSTAAHEQNSNRTLSNETDAL

Variants of: B1
Conditions: with cbk1_yeast CBK1, P53894
With P214A the “effect of a mutation on the interaction” value was “disrupting interaction strength”. F211W was tested, and the “effect of a mutation on the interaction” value was “disrupting interaction strength”. F211A was tested, and the “effect of a mutation on the interaction” value was “disrupting interaction strength”. K212A was tested, and the “effect of a mutation on the interaction” value was “disrupting interaction strength”. In the case of K212T, the “effect of a mutation on the interaction” value is reported as “disrupting interaction strength”. For K212D, the “effect of a mutation on the interaction” value was “disrupting interaction strength”. In the case of K212M, the “effect of a mutation on the interaction” value is reported as “disrupting interaction strength”. For K212S, the “effect of a mutation on the interaction” value was “disrupting interaction strength”. For K212F, the “effect of a mutation on the interaction” value was “disrupting interaction strength”. K212Q was tested, and the “effect of a mutation on the interaction” value was “disrupting interaction strength”. With F213Y the “effect of a mutation on the interaction” value was “disrupting interaction strength”. In the case of F213A, the “effect of a mutation on the interaction” value is reported as “disrupting interaction strength”. In the case of F213W, the “effect of a mutation on the interaction” value is reported as “disrupting interaction strength”.

Variants of: B2
Conditions: with ssd1_yeast SSD1, P24276
Y687A was tested, and the “effect of a mutation on the interaction” value was “disrupting interaction strength”.

Variants of: B3
Conditions: with cbk1_yeast CBK1, P53894
With F285A the “effect of a mutation on the interaction” value was “disrupting interaction strength”. For I272A, the “effect of a mutation on the interaction” value was “decreasing interaction strength”. For P286A, the “effect of a mutation on the interaction” value was “disrupting interaction strength”. N277A was tested, and the “effect of a mutation on the interaction” value was “decreasing interaction strength”. Y283A was tested, and the “effect of a mutation on the interaction” value was “disrupting interaction strength”.
